From patent US20170224799A1 (UNIVERSITY OF CONNECTICUT, published 2017) come the findings set out here.

In one assay the target is T1, H-2 D^d (mouse, UniProt P01900 25-311, limits assumed).
T1 construct: construct not described
T1 sequence (MHC heavy, looked up): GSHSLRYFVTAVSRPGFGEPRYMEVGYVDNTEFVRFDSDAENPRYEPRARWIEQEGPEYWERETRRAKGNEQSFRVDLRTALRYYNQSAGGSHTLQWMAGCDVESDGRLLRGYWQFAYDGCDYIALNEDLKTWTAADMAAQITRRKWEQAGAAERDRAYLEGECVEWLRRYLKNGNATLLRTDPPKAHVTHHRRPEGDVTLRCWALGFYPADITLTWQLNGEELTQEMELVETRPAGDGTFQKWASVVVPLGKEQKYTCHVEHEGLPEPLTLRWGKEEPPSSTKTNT
In words: direct peptide-binding studies.

The target of another assay is T2, H-2 L^d (mouse, UniProt P01897 25-309, limits assumed).
T2 construct: construct not described
T2 sequence (MHC heavy, looked up): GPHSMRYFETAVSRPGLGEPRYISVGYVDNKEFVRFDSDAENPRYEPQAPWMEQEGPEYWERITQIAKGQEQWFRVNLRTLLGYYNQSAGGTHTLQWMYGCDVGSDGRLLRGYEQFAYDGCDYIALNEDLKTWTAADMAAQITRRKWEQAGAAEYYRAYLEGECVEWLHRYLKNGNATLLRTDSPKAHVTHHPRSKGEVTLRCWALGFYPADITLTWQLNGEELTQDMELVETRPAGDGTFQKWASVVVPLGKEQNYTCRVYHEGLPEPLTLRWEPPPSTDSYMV
As to the kind of experiment: direct peptide-binding studies.

The target of a further assay is H-2 K^d (mouse, UniProt P01902 22-305). As to the kind of experiment: competition with radiolabeled standard peptide, purified H-2 K^d.
Chain of H-2 K^d (P01902 22-305): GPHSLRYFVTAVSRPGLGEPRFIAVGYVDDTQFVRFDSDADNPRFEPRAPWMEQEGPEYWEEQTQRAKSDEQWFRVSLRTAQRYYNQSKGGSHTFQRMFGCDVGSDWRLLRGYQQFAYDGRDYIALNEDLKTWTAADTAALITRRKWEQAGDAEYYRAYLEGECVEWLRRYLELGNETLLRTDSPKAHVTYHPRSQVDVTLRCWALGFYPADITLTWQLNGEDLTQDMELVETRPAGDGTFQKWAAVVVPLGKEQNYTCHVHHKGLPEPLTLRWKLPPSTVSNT

B1: Stau1.4 Mut peptide ALKSEEKTL (peptide)
peptide: ALKSEEKTL
As to B1, the binding result with H-2 D^d and with H-2 L^d was “no binding” throughout.

B2: Alkbh6.2 Mut peptide DYVPMEQPR (peptide)
peptide: DYVPMEQPR
With B2, the binding result with H-2 D^d and with H-2 L^d was “no binding” throughout.

B3: Atxn10.2 Mut peptide VFPGLMEL (peptide)
peptide: VFPGLMEL
For the molecule B3, the binding result with H-2 D^d and with H-2 L^d was “no binding” throughout.

B4: Zfp236.2 Mut peptide EYLDLQTQG (peptide)
peptide: EYLDLQTQG
The term IC50 denotes the point on the concentration scale where inhibition reaches its midpoint. The low end stands for inhibition by little substance, the high end for a need for much substance. For the molecule B4, the IC50 with H-2 K^d worked out at 10000 nM.

B5: Tnpo3.4 WT peptide LDMLQALC (peptide)
peptide: LDMLQALC
Molecule B5 yielded an IC50 with H-2 K^d of 89 nM.

B6: Tnpo3.3 WT peptide LDMLQALCIP (peptide)
peptide: LDMLQALCIP
With B6, the IC50 with H-2 K^d turned out to be 111 nM.

B7: Atxn10.1 Mut peptide QVFPGLMEL (peptide)
peptide: QVFPGLMEL
For B7, the binding result in the assay with H-2 D^d and in the assay with H-2 L^d was “no binding” throughout.

B8: Tnpo3.4 Mut peptide SYMLQALC (peptide)
peptide: SYMLQALC
With B8, the IC50 in the assay with H-2 K^d was 14900 nM.

B9: Ccdc136 Mut peptide ELQGLLEDEL (peptide)
peptide: ELQGLLEDEL
Regarding B9, the binding result in the assay with H-2 D^d and with H-2 L^d was “no binding” throughout.

B10: Tnpo3.3 Mut peptide SYMLQALCIP (peptide)
peptide: SYMLQALCIP
In turn, B10 showed an IC50 with H-2 K^d of 67 nM.

B11: Slit3 Mut peptide GFHGCIHEVL (peptide)
peptide: GFHGCIHEVL
Turning to B11, the binding result with H-2 D^d and with H-2 L^d was “no binding” in each case.
